This experiment has as its target HLA-E*01:03 expressed on HLA-E knockout HeLa cells by mRNA transfection (human, UniProt P13747 22-358). Kind of experiment: cell-based or functional assay.

B1: HLA-E activator receptor (third generation CAR: HLA-E scFv, CD8 hinge, CD28 transmembrane domain, CD28/41BB/CD3 intracellular domain) (receptor)
chain: QVQLRESGPSLVKPSQTLSLTCTVSGFSLTSYGVHWVRQPPGKGLEWLGVIWTGGTTNYNTALMSRLSITKDNSKSQVFLKMNSLQTDDTAIYYCARDGDSYNREAWFAYWGQGTLVTVSAGGGGSGGGGSGGGGSGGQIVLTQSPAVISASPGEKVILTCSASSSVSYMHWFQQKPGTSPKLWIYGTSNLASGVPARFSGGGSGTSYSLTISRMEAEDAATYYCQQRSRYPFTFGSGTKLEIKTTTPAPRPPTPAPTIASQPLSLRPEACRPAAGGAVHTRGLDFACDFWVLVVVGGVLACYSLLVTVAFIIFWVRSKRSRLLHSDYMNMTPRRPGPTRKHYQPYAPPRDFAAYRSKRGRKKLLYIFKQPFMRPVQTTQEEDGCSCRFPEEEEGGCELRVKFSRSADAPAYKQGQNQLYNELNLGRREEYDVLDKRRGRDPEMGGKPRRKNPQEGLYNELQKDKMAEAYSEIGMKGERRRGKGHDGLYQGLSTATKDTYDALHMQALPPR
On to B1, for which the “EC50 of specific killing of HeLa cells by primary T cells” value was about 10000 HLA-E molecules.

These data come from US20250177445A1 (A2 BIOTHERAPEUTICS, published 2025).
